Measurements reported in US20070258988A1.

Legend:
[1] = biological target: hMOR-1 (exons 1-3) (human) (UniProt P35372); test: cell-based or functional assay
hMOR-1 (human) [2] = biological target: hMOR-1 (human) (UniProt P35372); test: cell-based or functional assay
hMOR-1A (human) [3] = test: cell-based or functional assay
hMOR-1B1 (human) [4] = biological target: hMOR-1B1 (human) (UniProt P35372); test: cell-based or functional assay
hMOR-1B2 (human) [5] = biological target: hMOR-1B2 (human) (UniProt P35372); test: cell-based or functional assay
hMOR-1B3 (human) [6] = biological target: hMOR-1B3 (human) (UniProt P35372); test: cell-based or functional assay
hMOR-1B4 (human) [7] = biological target: hMOR-1B4 (human) (UniProt P35372); test: cell-based or functional assay
hMOR-1B5 (human) [8] = biological target: hMOR-1B5 (human) (UniProt P35372); test: cell-based or functional assay
hMOR-1Y (human) [9] = biological target: hMOR-1Y (human) (UniProt P35372); test: cell-based or functional assay
rMOR-1 (no Exon 4) (rat) [10] = biological target: rMOR-1 (no Exon 4) (rat) (UniProt P33535); test: cell-based or functional assay
rMOR-1 (rat) [11] = biological target: rMOR-1 (rat) (UniProt P33535); test: cell-based or functional assay
rMOR-1A (rat) [12] = test: cell-based or functional assay
rMOR-1C1 (rat) [13] = test: cell-based or functional assay
rMOR-1D (rat) [14] = test: cell-based or functional assay
rMOR-1 (no Exon 4) (rat) [15] = biological target: rMOR-1 (no Exon 4) (rat) (UniProt P33535); test: [3H]DAMGO saturation binding, membranes of stable CHO transfectants
rMOR-1 (rat) [16] = biological target: rMOR-1 (rat) (UniProt P33535); test: as above
rMOR-1A (rat) [17] = test: as above
rMOR-1C1 (rat) [18] = test: as above
rMOR-1D (rat) [19] = test: as above
hMOR-1 (human) [20] = biological target: hMOR-1 (human) (UniProt P35372); test: competition against [3H]DAMGO (~1 nM), membranes of stable CHO transfectants
hMOR-1B1 (human) [21] = biological target: hMOR-1B1 (human) (UniProt P35372); test: as above
rMOR-1 (rat) [22] = biological target: rMOR-1 (rat) (UniProt P33535); test: as above
rMOR-1A (rat) [23] = test: as above
rMOR-1C1 (rat) [24] = test: as above
rMOR-1D (rat) [25] = test: as above
[26] = biological target: hMOR-1 (exons 1-3) (human) (UniProt P35372); test: as above
hMOR-1A (human) [27] = test: as above
hMOR-1B2 (human) [28] = biological target: hMOR-1B2 (human) (UniProt P35372); test: as above
hMOR-1B3 (human) [29] = biological target: hMOR-1B3 (human) (UniProt P35372); test: as above
hMOR-1B4 (human) [30] = biological target: hMOR-1B4 (human) (UniProt P35372); test: as above
hMOR-1B5 (human) [31] = biological target: hMOR-1B5 (human) (UniProt P35372); test: as above
hMOR-1Y (human) [32] = biological target: hMOR-1Y (human) (UniProt P35372); test: as above
rMOR-1 (no Exon 4) (rat) [33] = biological target: rMOR-1 (no Exon 4) (rat) (UniProt P33535); test: as above

Row | Substance | EC50 (nM), stimulation of [35S]GTPγS binding (rMOR-1 (no Exon 4) (rat) [10]) | Max Stim (%) (rMOR-1 (no Exon 4) (rat) [10]) | EC50 (nM), stimulation of [35S]GTPγS binding (rMOR-1 (rat) [11]) | Max Stim (%) (rMOR-1 (rat) [11]) | EC50 (nM), stimulation of [35S]GTPγS binding (rMOR-1A (rat) [12]) | Max Stim (%) (rMOR-1A (rat) [12]) | EC50 (nM), stimulation of [35S]GTPγS binding (rMOR-1C1 (rat) [13]) | Max Stim (%) (rMOR-1C1 (rat) [13]) | EC50 (nM), stimulation of [35S]GTPγS binding (rMOR-1D (rat) [14]) | Max Stim (%) (rMOR-1D (rat) [14]) | Ki (hMOR-1 (human) [20]) | Ki (hMOR-1B1 (human) [21]) | Ki (rMOR-1 (rat) [22]) | Ki (rMOR-1A (rat) [23]) | Ki (rMOR-1C1 (rat) [24]) | Ki (rMOR-1D (rat) [25]) | Ki (hMOR-1A (human) [27]) | Ki (hMOR-1B2 (human) [28]) | Ki (hMOR-1B3 (human) [29]) | Ki (hMOR-1B4 (human) [30]) | further results
1 | [D-Ala^2,MePhe^4,Gly(ol)^5]enkephalin (DAMGO) (peptide) | 86 nM | 196% | 12 nM | 233% | 13 nM | 176% | 4 nM | 233% | 125 nM | 113% | 2 nM | 1.2 nM | 3.3 nM | 6 nM | 4.5 nM | 4.7 nM |  |  |  |  | Max Inhib (%) [1]: 74%; Max Inhib (%) (hMOR-1 (human) [2]): 76%; Max Inhib (%) (hMOR-1A (human) [3]): 82%; Max Inhib (%) (hMOR-1B1 (human) [4]): 57%; Max Inhib (%) (hMOR-1B2 (human) [5]): 90%; Max Inhib (%) (hMOR-1B3 (human) [6]): 73%; Max Inhib (%) (hMOR-1B4 (human) [7]): 65%; Max Inhib (%) (hMOR-1B5 (human) [8]): 83%; Max Inhib (%) (hMOR-1Y (human) [9]): 91%; Kd (rMOR-1 (no Exon 4) (rat) [15]): 4.5 nM; Kd (rMOR-1 (rat) [16]): 2.8 nM; Kd (rMOR-1A (rat) [17]): 2.5 nM; Kd (rMOR-1C1 (rat) [18]): 4.8 nM; Kd (rMOR-1D (rat) [19]): 4.7 nM
2 | [D-Pen^2, D-Pen^5]enkephalin (DPDPE) (peptide) |  |  |  |  |  |  |  |  |  |  | > 500 nM | > 500 nM |  |  |  |  | > 500 nM | > 500 nM | > 500 nM | > 500 nM | Ki [26]: > 500 nM; Ki (hMOR-1B5 (human) [31]): > 500 nM; Ki (hMOR-1Y (human) [32]): > 500 nM
3 | DADLE (peptide) |  |  |  |  |  |  |  |  |  |  |  |  |  |  |  |  |  | 10 nM |  |  | 
4 | [D-Ser^2, Leu^5]enkephalin-Thr^6 (DSLET) (peptide) | 690 nM | 226% | 76 nM | 251% | 127 nM | 206% | 253 nM | 312% | 540 nM | 187% | 19.1 nM | 13.9 nM | 30.9 nM | 44.5 nM | 45 nM | 27.3 nM | 19.7 nM | 34.4 nM | 16.4 nM | 22.3 nM | Ki (hMOR-1Y (human) [32]): 15.4 nM; Ki (rMOR-1 (no Exon 4) (rat) [33]): 24.2 nM
5 | Endomorphin 2 (peptide) |  |  |  |  |  |  |  |  |  |  |  |  | 8 nM |  |  |  |  |  |  |  | 
6 | Endomorphin 1 (peptide) |  | 189% |  | 320% |  | 205% |  | 377% | 100 nM | 145% |  |  |  |  |  |  |  |  |  |  | 
